Here are results for four substances from patent US5637463.

The first assay deals with LexA-FcεRIγCT mutant with Tyr75 changed to phenylalanine, co-expressed with Lck (E. coli; human) (UniProt P0A7C2). In words: yeast two-hybrid with co-expressed Lck, LacZ reporter.
With “Vmw65-Syk N+C SH2 fusion protein (human Syk amino acids 11-262) (from UniProt P06492)”, the Galactosidase units (Galactosidase units) worked out at 0.

With “Vmw65-SykN SH2 fusion protein (human Syk amino acids 11-111) (from UniProt P06492)”, the Galactosidase units (Galactosidase units) worked out at 0.

In turn, “Vmw65-SykC SH2 fusion protein (human Syk amino acids 173-262) (from UniProt P06492)” displayed a Galactosidase units (Galactosidase units) of 0.

In turn, “Vmw65-Lyn SH2 fusion protein (human Lyn amino acids 124-229) (from UniProt P06492)” returned a Galactosidase units (Galactosidase units) of 0.

The target of a further assay is LexA-NLS-FcεRIγ CT fusion protein, co-expressed with Lck (tyrosine-phosphorylated) (E. coli; human) (UniProt P0A7C2). The assay is described as above.
Turning to “Vmw65-Syk N+C SH2 fusion protein (human Syk amino acids 11-262) (from UniProt P06492)”, the Galactosidase units (Galactosidase units) was 559.

“Vmw65-SykN SH2 fusion protein (human Syk amino acids 11-111) (from UniProt P06492)”: the Galactosidase units (Galactosidase units) is 0.

Substance “Vmw65-SykC SH2 fusion protein (human Syk amino acids 173-262) (from UniProt P06492)” had a Galactosidase units (Galactosidase units) of 0.

Regarding “Vmw65-Lyn SH2 fusion protein (human Lyn amino acids 124-229) (from UniProt P06492)”, the Galactosidase units (Galactosidase units) amounted to 0.

The target in a further assay is LexA-FcεRIγCT mutant with Tyr64 changed to phenylalanine, co-expressed with Lck (E. coli; human) (UniProt P0A7C2). Described as above.
As to “Vmw65-Syk N+C SH2 fusion protein (human Syk amino acids 11-262) (from UniProt P06492)”, the Galactosidase units (Galactosidase units) came out at 0.

“Vmw65-SykN SH2 fusion protein (human Syk amino acids 11-111) (from UniProt P06492)” registered a Galactosidase units (Galactosidase units) of 0.

In the case of “Vmw65-SykC SH2 fusion protein (human Syk amino acids 173-262) (from UniProt P06492)”, the Galactosidase units (Galactosidase units) was 0.

In the case of “Vmw65-Lyn SH2 fusion protein (human Lyn amino acids 124-229) (from UniProt P06492)”, the Galactosidase units (Galactosidase units) was 0.

In the next assay the target is LexA-βCT fusion protein (C-terminus of the rat β subunit of FcεRI), co-expressed with Lck (E. coli; rat). The description is as above.
Take “Vmw65-Syk N+C SH2 fusion protein (human Syk amino acids 11-262) (from UniProt P06492)”: the Galactosidase units (Galactosidase units) turned out to be 1070.

On to “Vmw65-SykN SH2 fusion protein (human Syk amino acids 11-111) (from UniProt P06492)”, for which the Galactosidase units (Galactosidase units) turned out to be 0.

The substance “Vmw65-SykC SH2 fusion protein (human Syk amino acids 173-262) (from UniProt P06492)” gave a Galactosidase units (Galactosidase units) of 593.

Regarding “Vmw65-Lyn SH2 fusion protein (human Lyn amino acids 124-229) (from UniProt P06492)”, the Galactosidase units (Galactosidase units) was 858.

The target in another assay is LexA-FcεRIγCT double mutant with Tyr64 and Tyr75 changed to phenylalanine, co-expressed with Lck (E. coli; human) (UniProt P0A7C2). Described as above.
Turning to “Vmw65-Syk N+C SH2 fusion protein (human Syk amino acids 11-262) (from UniProt P06492)”, the Galactosidase units (Galactosidase units) was 0.

Substance “Vmw65-SykN SH2 fusion protein (human Syk amino acids 11-111) (from UniProt P06492)” came in with a Galactosidase units (Galactosidase units) of 0.

Regarding “Vmw65-SykC SH2 fusion protein (human Syk amino acids 173-262) (from UniProt P06492)”, the Galactosidase units (Galactosidase units) turned out to be 0.

Consider “Vmw65-Lyn SH2 fusion protein (human Lyn amino acids 124-229) (from UniProt P06492)”, for which the Galactosidase units (Galactosidase units) turned out to be 0.
